# Reference: patent US20240209099A1 (SUZHOU TRANSCENTA THERAPEUTICS, published 2024)
# T1: Recombinant Rhesus macaque VEGFR2/KDR Protein, His tag (rhesus macaque)
# T1 construct: Expressed in HEK293, bought from ACRO Biosystems; also called rhesus VEGFR2-his; rhesus VEGFR2
# T1 chain: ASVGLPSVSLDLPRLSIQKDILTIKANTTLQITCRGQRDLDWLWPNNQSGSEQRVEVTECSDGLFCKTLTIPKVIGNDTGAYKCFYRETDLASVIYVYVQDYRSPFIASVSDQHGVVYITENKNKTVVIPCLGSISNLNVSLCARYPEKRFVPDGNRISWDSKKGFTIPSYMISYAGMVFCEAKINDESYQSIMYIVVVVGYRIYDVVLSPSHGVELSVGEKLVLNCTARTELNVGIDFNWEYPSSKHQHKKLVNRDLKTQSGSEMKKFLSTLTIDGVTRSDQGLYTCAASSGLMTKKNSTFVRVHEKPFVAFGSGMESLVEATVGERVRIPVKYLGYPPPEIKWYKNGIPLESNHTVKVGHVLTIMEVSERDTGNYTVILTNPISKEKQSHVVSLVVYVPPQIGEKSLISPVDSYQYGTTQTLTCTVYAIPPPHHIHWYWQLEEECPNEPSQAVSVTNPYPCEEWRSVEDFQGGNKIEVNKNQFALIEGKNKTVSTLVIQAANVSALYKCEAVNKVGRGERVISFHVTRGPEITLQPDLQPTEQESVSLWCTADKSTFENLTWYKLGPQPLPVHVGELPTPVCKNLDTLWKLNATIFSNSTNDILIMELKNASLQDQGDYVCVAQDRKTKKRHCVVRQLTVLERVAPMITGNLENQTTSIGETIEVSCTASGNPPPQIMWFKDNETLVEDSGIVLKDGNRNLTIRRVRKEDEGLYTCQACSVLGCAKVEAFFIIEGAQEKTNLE
# Assays:
# [1] = target: T2, human VEGFR2 on HUVEC cells (human, UniProt P35968 20-1356); experiment: flow cytometry on HUVEC cells, percent shifted cells (Shift %), anti-human IgG-PE
# T2 construct: also called hVEGFR2 on HUVEC
# [2] = target: T3, Recombinant Human VEGFR2/KDR Protein, His tag (hVEGFR2-his) (human, UniProt P35968 20-764); experiment: ELISA, hVEGFR2-his coated (0.5 ug/ml), anti-human Fc-HRP
# T3 construct: Expressed in HEK293, bought from ACRO Biosystems; also called human VEGFR2-his; Human VEGFR2/KDR-His
# Procedure: (§1) Same protocol of Example 2 antibody screening by ELISA assay. Briefly, 0.5 μg/ml hVEGFR2-his was coated and serially diluted purified antibodies would bind to coated antigen. Using HRP conjugated goat anti-mouse Fc antibody could detect binding signals of each antibody.
# (§2) Same protocol of Example 4 except using HRP conjugated goat anti-human Fc antibody as secondary antibody. Binding to hVEGFR2-his and rhesus VEGFR2-his (Acrobiosystems, Cat #VE2-C52H3) were also analyzed head-to-head.
# [3] = target: T1, Recombinant Rhesus macaque VEGFR2/KDR …; experiment: ELISA, rhesus VEGFR2-his coated, anti-human Fc-HRP
# Procedure: as §1, §2
# [4] = target: T3, Recombinant Human VEGFR2/KDR Protein, …; experiment: competition ELISA: VEGF-A coated (0.25 ug/ml), antibody mixed with VEGFR2, detection with mouse anti-VEGFR2 serum and anti-mouse Fc-HRP; blocked ligand VEGF-A
# Procedure: For this assay, 0.25 μg/ml VEGF-A was coated on ELISA plate before a mixture of chimeric antibodies and VEGFR2 were added. To detect free VEGF-A (not bind to VEGFR2), 1:1000 diluted mouse serum (mouse previous immunized with human VEGFR2) were added and HRP conjugated goat anti-mouse Fc antibody was used as secondary antibody.
# [5] = target: T3, Recombinant Human VEGFR2/KDR Protein, …; experiment: SPR (Biacore), antibody captured by anti-Fc, antigen 2.5-80 nM
# Procedure: A CM5 sensor chip was activated in each flow cell by 7-min injection (10 μl/min) of freshly prepared 1:1 50 mM N-hydroxysuccinimide (NHS): 200 mM 1-ethyl-3-(3-dimethylaminopropyl)-carbodiimide (EDC). Then anti-human Fc antibody (GE Healthcare) in a concentration of 10 μg/ml in 10 mM sodium acetate buffer PH 5.0 was injected onto the activated chip at 10 μl/min (HBS-EP running buffer: 10 mM HEPES, 150 mM NaCl, 3.4 mM EDTA, 0.005% surfactant P20, pH 7.4). The remaining active coupling sites were blocked by 7 min injection of 1M ethanolamine at 10 μl/min. The immobilization level of each flow cell is ˜9000RU. Antibodies were captured in FC2 by anti-human Fc IgG or anti-mouse Fc (GE Healthcare) to 200˜300RU. FC1 was used as the reference cell. Antigen was injected at varying concentrations (2.5 nM, 5 nM, 10 nM, 20 nM, 40 nM and 80 nM) after capture of antibody. The association time for antibody binding antigen is 180s. Surface Regeneration condition is 120s at 10 μl/min in Gly pH1.5. The signals with captured antibody subtracted from those without captured antibody were calculated with Biacore X100 evaluation software ver. 2.0 (Biacore).
# [6] = target: T3, Recombinant Human VEGFR2/KDR Protein, …; experiment: ELISA, hVEGFR2-his coated, anti-human Fc-HRP
# Procedure: as §2
# Same protocol of Example 9.
EC50 [1] [µg/mL],EC50 [2] [µg/mL],EC50 [3] [µg/mL],IC50 [4] [µg/mL],Kd [5] [nM],koff [5] [s⁻¹],kon [5] [M⁻¹ s⁻¹],EC50 [6] [µg/mL],Binder
0.157,0.015,0.0299,0.148,,,,,"042C (chimeric 042) (antibody, V domains shown, Chimeric antibody with human constant regions (vector pCP-Hck/Hcg1)) VH: EVQLVESGGDLVKPGGSLKLSCTASGFSFSIYGMSWVRQTPDKRLEWVASISVGGSYTYYADSVEGRFTISRENAKNTLYLQMNSLKSEDTALYYCARELDGNYDYWGQGTSLTVSS VL: DIVITQNELSNPVTFGESVSISCRSSKSLLYKDGKTYLNWFLQRPGQSPQLLIYLMSTRASGVSDRFSGSGSGTDFTLEISRVKAEDVGVYYCQQLVEYPFTFGSGTKLEIK"
0.0823,0.0308,0.0209,2.11,,,,,"002C (chimeric 002) (antibody, V domains shown, Mouse variable regions cloned into expression vector pCP-Hck/Hcg1 (human constant regions; detected with anti-human Fc)) VH: QVQLQQSGPELVKPGASVKISCKASGYAFSSSWMNWVKQRPGEGLEWIGRIFPGDGDTYYNGKFQVKATLTADKSSSTAYMQLSSLTSEDSAVYFCAIFLDTSGRYVDYWGQGTTLTISS VL: DIVMTQSHKFMSTSVGDRVSITCKASQDVNTAVAWYQQKPGQSPKLLIYSASYRYIGVPDRFTGSGSGTDFTFTISSVQSEDLTVYYCQQHYRAPLTFGSGTKLELK"

# Second part, the binder before the results:
Binder,EC50 [1] [µg/mL],EC50 [2] [µg/mL],EC50 [3] [µg/mL],IC50 [4] [µg/mL],Kd [5] [nM],koff [5] [s⁻¹],kon [5] [M⁻¹ s⁻¹],EC50 [6] [µg/mL]
"054C (chimeric 054) (antibody, V domains shown, Chimeric antibody with human constant regions (vector pCP-Hck/Hcg1)) VH: EVQLVESGGDLVKPGGSLKLSCAASGFTFSMYGMSWVRQTPDKRLEWVASISIGGSYTYYADSVEGRFIISRENAKNTLFLQMNSLKSEDTALYYCARELDGNYDYWGQGTTLTVSS VL: HIMITQDELSNPVTFGESVSISCRSSKSLLYKDGKTYLNWFLQRPGQSPQLLIYLMSTRASGVSDRFSGSGSGTDFTLEISRVKAEDVGIYYCQQLVEYPFTFGSGTKLEIK",0.0875,0.0189,0.0168,0.1,2.45,0.000113,46000,0.0186
"048C (chimeric 048) (antibody, V domains shown, Chimeric antibody with human constant regions (vector pCP-Hck/Hcg1)) VH: EVQLVESGGDLVKPGGSLKLSCAASGFTFSMYGMSWVRQTPDKRLEWVASISIGGSYTYYADSVEGRFTISRENAKNTLFLQMNSLKSEDTALYYCAREMDGNYDYWGHGTTLTVSS VL: DVMITQDELSNPVTFGESVSISCRSSKSLLYKDGKTYLNWFLQRPGQSPQLLIYLMSTRASGVSDRFSGSGSGTDFTLEISRVKAEDVGIYYCQQLVEYPFTFGSGTKLEIK",,0.0053,0.0101,0.09,,,,0.00574
